Results from article PMC5697884, “In vitro characterization of the antivirulence target of Gram-positive pathogens, peptidoglycan O-acetyltransferase A (OatA)” (PLoS Pathogens, 2017).

Test system: CC(=O)Oc1ccc([N+](=O)[O-])cc1
Assay: purified protein
Conditions: hydrolysis (esterase) without acceptor, 50 mM sodium phosphate pH 6.5, 5% (v/v) ethanol, 25 °C

Substance | Km | kcat
SaOatAC (Staphylococcus aureus subsp. aureus NCTC 8325) | 1150 ± 70 µM | 0.060 ± 0.00078 s⁻¹
SpOatAC (Streptococcus pneumoniae R6) | 56 ± 6.5 µM | 0.016 ± 0.00039 s⁻¹
